A word on the stoichiometry N: it is the number of molecules, sites or subunits per partner or assembly. By koff is commonly meant a measure of how fast the partners let go of each other. As a reminder, the kon is the second-order rate constant of association.

The chains are these.
B1: processed BMP‐10 CPLX (tag‐free, HEK293) (complex, human)
chain 1: SPIMNLEQSPLEEDMSLFGDVFSEQDGVDFNTLLQSMKDEFLKTLNLSDIPTQDSAKVDPPEYMLELYNKFATDRTSMPSANIIRSFKNEDLFSQPVSFNGLRKYPLLFNVSIPHHEEVIMAELRLYTLVQRDRMIYDGVDRKITIFEVLESKGDNEGERNMLVLVSGEIYGTNSEWETFDVTDAIRRWQKSGSSTHQLEVHIESKHDEAEDASSGRLEIDTSAQNKHNPLLIVFSDDQSSDKERKEELNEMISHEQLPELDNLGLDSFSSGPGEEALLQMRSNIIYDSTARIRR
chain 2: NAKGNYCKRTPLYIDFKEIGWDSWIIAPPGYEAYECRGVCNYPLAEHLTPTKHAIIQALVHLKNSQKASKACCVPTKLEPISILYLDKGVVTYKFKYEGMAVSECGCR
modifications: N‐glycosylation
notes: Bone morphogenetic protein 10, human, prodomain (PD) up to the endogenous PPC cleavage site RIRR; calculated molecular weight without glycans 34.6 kDa; secreted through the BM40 signal peptide of the vector; Bone morphogenetic protein 10, human, growth factor (GF) released by PPC cleavage after RIRR; calculated molecular weight of the monomer 12.2 kDa; The SPR methods say only 'processed BMP‐10 …
B4: BMPRII ectodomain, human IgG1‐Fc fusion (R&D Systems #811‐BR‐100/CF) (Fc fusion, UniProt Q13873 27-150, looked up)
chain: SQNQERLCAFKDPYQQDLGIGESRISHENGTILCSKGSTCYGLWEKSKGDINLVKQGCWSHIGDPQECHYEECVVTTTPPSIQNGTYRFCCCSTDLCNVNFTENFPPPDTTPLSPPHSFNRDET
notes: Bone morphogenetic protein receptor type II (BMPRII), ectodomain; 'human' in the sentence may qualify the IgG1 Fc only; also called BMP type II receptor; source: bought: R&D Systems (#811‐BR‐100/CF)

Data set [1] concerns the target T1, ENG ectodomain (R&D Systems #1097‐EN‐025/CF) (human, UniProt P17813 26-586).
T1 construct: Endoglin (ENG), ectodomain; The methods read 'the human IgG1‐Fc‐fusion ectodomains of BMPRII, ALK‐1 as well as ENG'; also called endoglin; co‐receptor ENG; source: bought: R&D Systems (#1097‐EN‐025/CF); not shown: Fc (human IgG1)
T1 sequence (looked up): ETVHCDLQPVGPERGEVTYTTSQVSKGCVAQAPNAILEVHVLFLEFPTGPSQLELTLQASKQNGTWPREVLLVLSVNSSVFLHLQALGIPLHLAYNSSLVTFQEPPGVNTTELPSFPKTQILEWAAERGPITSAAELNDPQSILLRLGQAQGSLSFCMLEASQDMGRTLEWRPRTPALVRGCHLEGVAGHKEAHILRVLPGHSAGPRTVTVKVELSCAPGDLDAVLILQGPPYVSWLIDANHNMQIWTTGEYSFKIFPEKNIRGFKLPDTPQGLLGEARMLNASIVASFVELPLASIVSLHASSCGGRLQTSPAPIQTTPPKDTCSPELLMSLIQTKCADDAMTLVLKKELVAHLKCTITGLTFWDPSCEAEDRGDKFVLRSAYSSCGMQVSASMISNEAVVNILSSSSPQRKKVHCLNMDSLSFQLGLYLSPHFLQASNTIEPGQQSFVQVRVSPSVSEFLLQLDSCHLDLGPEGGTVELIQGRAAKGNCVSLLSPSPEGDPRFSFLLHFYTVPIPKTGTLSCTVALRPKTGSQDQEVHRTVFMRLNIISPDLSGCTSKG
The data set can be described thus: SPR; receptor ectodomains immobilised at 500 or 800 RUs on a CM5 chip by amine coupling; analytes 0 to 80 nM, 1:2 serial dilutions, 1× HBS‐EP; 1:1 model with mass transfer; apparent KD = kd/ka; three independent experiments. Conditions: both partners purified. (In general: Surface plasmon resonance follows binding to a sensor surface in real time, without labels.)

Data set [2] concerns the molecule itself. The data set can be described thus: AUC; sedimentation velocity of elution fractions after SEC/MALS (S200 Increase, 1× PBS), 54 000 rpm, 280 nm, c(s) fit; PD dimer.
The target in data set [3] is T2, BMP‐9 PD (E. coli) (human, UniProt Q9UK05 23-319).
T2 construct: also called BMP‐9 prodomain; source: E. coli BL21‐CodonPlus, purified (Ni‐NTA)
T2 sequence (looked up): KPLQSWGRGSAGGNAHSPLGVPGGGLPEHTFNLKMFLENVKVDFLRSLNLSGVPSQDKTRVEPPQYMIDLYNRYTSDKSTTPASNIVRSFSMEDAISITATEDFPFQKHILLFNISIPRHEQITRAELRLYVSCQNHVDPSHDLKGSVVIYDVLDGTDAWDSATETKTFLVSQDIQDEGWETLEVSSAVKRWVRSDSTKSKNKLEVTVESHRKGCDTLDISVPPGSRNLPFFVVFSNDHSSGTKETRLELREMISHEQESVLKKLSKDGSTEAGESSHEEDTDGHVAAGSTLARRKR
The data set can be described thus: SPR; PDs of BMP‐9, BMP‐10 and N‐10/C‐9 fusion PD immobilised at 450 RUs on a CM5 chip by amine coupling; BMP‐10 GF 0 to 80 nM, 1:2 serial dilutions, 1× HBS‐EP; 1:1 model with mass transfer; apparent KD = kd/ka. Conditions: both partners purified.

Data set [4] concerns the target T3, BMP‐10 PD (E. coli) (human, UniProt O95393 22-316).
T3 construct: also called BMP‐10 prodomain; E. coli‐derived BMP‐10 PD; source: E. coli BL21‐CodonPlus, purified (Ni‐NTA)
T3 sequence (looked up): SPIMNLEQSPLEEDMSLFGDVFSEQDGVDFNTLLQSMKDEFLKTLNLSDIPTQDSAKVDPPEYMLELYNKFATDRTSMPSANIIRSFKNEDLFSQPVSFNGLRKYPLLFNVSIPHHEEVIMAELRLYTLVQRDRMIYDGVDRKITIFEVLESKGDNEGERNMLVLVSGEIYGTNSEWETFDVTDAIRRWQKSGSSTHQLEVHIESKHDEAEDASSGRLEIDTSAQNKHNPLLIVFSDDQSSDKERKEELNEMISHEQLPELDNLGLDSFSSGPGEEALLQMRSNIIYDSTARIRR
Described as above. Conditions: both partners purified.

Data set [5] deals with T1, ENG ectodomain (R&D Systems …). The data set can be described thus: SPR; receptor ectodomains immobilised at 500 or 800 RUs on a CM5 chip by amine coupling; analytes 0 to 80 nM, 1:2 serial dilutions, 1× HBS‐EP; 1:1 model with mass transfer; apparent KD = kd/ka; three independent experiments. Conditions: both partners purified. The source holds these as a separate data set.

Data set [6] deals with B4. The description is as above. The following applies: both partners purified.
Data set [7] addresses B1. Described as above. The following applies: both partners purified.

In the case of B1, in data set [1], the binding result was “binds”.

B2: BMP‐10 PD (HEK293, from the processed BMP‐10 CPLX) (domain or fragment, human)
chain: SPIMNLEQSPLEEDMSLFGDVFSEQDGVDFNTLLQSMKDEFLKTLNLSDIPTQDSAKVDPPEYMLELYNKFATDRTSMPSANIIRSFKNEDLFSQPVSFNGLRKYPLLFNVSIPHHEEVIMAELRLYTLVQRDRMIYDGVDRKITIFEVLESKGDNEGERNMLVLVSGEIYGTNSEWETFDVTDAIRRWQKSGSSTHQLEVHIESKHDEAEDASSGRLEIDTSAQNKHNPLLIVFSDDQSSDKERKEELNEMISHEQLPELDNLGLDSFSSGPGEEALLQMRSNIIYDSTARIRR
modifications: N‐glycosylation
notes: Bone morphogenetic protein 10, human, prodomain (PD) up to the endogenous PPC cleavage site RIRR; band at 45 kDa, calculated molecular weight without glycans 34.6 kDa; The methods of SEC/MALS and AUC say only 'two fractions of BMP‐10'; also called separated BMP‐10 PD
As for B2, the “stoichiometry N” value in data set [2] was found to be 2.

B3: BMP‐10 GF (R&D Systems #2926‐BP‐025/CF) (ligand, human, UniProt O95393 317-424, looked up)
chain: NAKGNYCKRTPLYIDFKEIGWDSWIIAPPGYEAYECRGVCNYPLAEHLTPTKHAIIQALVHLKNSQKASKACCVPTKLEPISILYLDKGVVTYKFKYEGMAVSECGCR
notes: Bone morphogenetic protein 10, human, growth factor (GF) moiety that follows the PPC cleavage site RIRR; calculated molecular weight of the monomer 12.2 kDa, dimer 24.4 kDa; Disulfide-linked GF dimer; also called BMP‐10 growth factor; BMP‐10 GF dimer; source: bought: R&D Systems (#2926‐BP‐025/CF); called commercially available HEK293‐derived
Regarding B3, the Kd turned out to be 10.4 ± 2.5 nM in data set [3], 5.2 ± 0.7 nM in data set [4], 16.3 ± 2.9 nM in data set [5] and 2.6 ± 0.6 nM in data set [6]. The koff stood at 0.0024 s⁻¹ in data set [3], 0.0024 s⁻¹ in data set [4], 0.008 s⁻¹ in data set [5] and 0.0017 s⁻¹ in data set [6]. The kon in data set [3] was determined as 230000 M⁻¹ s⁻¹; in data set [4] it was 500000 M⁻¹ s⁻¹; in data set [5], 490000 M⁻¹ s⁻¹; in data set [6], 690000 M⁻¹ s⁻¹.
In the case of B4, in data set [7], the Kd was 0.8 ± 0.1 nM, the koff turned out to be 0.00079 s⁻¹ and the kon came to 940000 M⁻¹ s⁻¹.
